{
  "source": "paper PMC5443882",
  "key": {"[1]": {"biological_target": "LHCII, the major light-harvesting pigment-protein complex of Photosystem II (Spinacia oleracea (endogenous in spinach leaves))", "experiment": "native gel or EMSA; non-denaturing gel electrophoresis of LHCII from dark-adapted leaves in 0.1% DM under constant illumination from sample loading, each slot at a different light intensity (11-1240 µmol photons m^-2 s^-1); 4 °C"}, "[2]": {"biological_target": "LHCII, the major light-harvesting pigment-protein complex of Photosystem II (Spinacia oleracea (endogenous in spinach leaves))", "experiment": "native gel or EMSA; non-denaturing gel electrophoresis of LHCII-HL, isolated from spinach leaves pre-illuminated with 1200 µmol photons m^-2 s^-1, suspended in 0.1% DM; 4 °C, running buffer 96 mM glycine, 12.5 mM Tris, 0.05% LDS"}, "[3]": {"biological_target": "LHCII, the major light-harvesting pigment-protein complex of Photosystem II (Spinacia oleracea (endogenous in spinach leaves))", "experiment": "native gel or EMSA; non-denaturing gel electrophoresis of LHCII isolated from dark-adapted spinach leaves, suspended in 0.1% DM; 3% stacking and 8% separating gel, 4 °C, running buffer 96 mM glycine, 12.5 mM Tris, 0.05% LDS"}, "[4]": {"biological_target": "LHCII, the major light-harvesting pigment-protein complex of Photosystem II (Spinacia oleracea (endogenous in spinach leaves))", "experiment": "fluorescence correlation spectroscopy; mixture of LHCII trimers and monomers in 0.1% DM, illuminated with blue light of 100 µmol photons m^-2 s^-1 for 30 min, diluted to 3 nM; the form is assigned by its diffusion coefficient against monomer and trimer standards"}, "[5]": {"biological_target": "LHCII, the major light-harvesting pigment-protein complex of Photosystem II (Spinacia oleracea (endogenous in spinach leaves))", "experiment": "native gel or EMSA; identical experiment with thylakoid membranes from dark-adapted spinach leaves solubilised in 0.1% DM, electrophoresis under illumination of increasing intensity (Fig. S4)"}, "[6]": {"biological_target": "LHCII, the major light-harvesting pigment-protein complex of Photosystem II (Spinacia oleracea (endogenous in spinach leaves))", "experiment": "native gel or EMSA; lipid-LHCII samples enriched with exogenously added zeaxanthin, separated by native electrophoresis; dimer bands cut out for spectroscopy"}},
  "note": "“And” between values parts separate entries of the source, which are not always exact repeats. Identical values can stand only once.",
  "data": [
    {"substance": "LHCII, the major light-harvesting pigment-protein complex of Photosystem II (natural protein)", "values": [
      {"measurement": "stoichiometry N", "setting": "[1]", "value": "3 and 2"},
      {"measurement": "stoichiometry N", "setting": "[2]", "value": "3 and 2"},
      {"measurement": "trimer/monomer ratio", "setting": "[2]", "value": 0.71},
      {"measurement": "stoichiometry N", "setting": "[3]", "value": 3},
      {"measurement": "trimer/monomer ratio", "setting": "[3]", "value": 2.82},
      {"measurement": "stoichiometry N", "setting": "[4]", "value": 2},
      {"measurement": "stoichiometry N", "setting": "[5]", "value": "3 and 2"},
      {"measurement": "stoichiometry N", "setting": "[6]", "value": 2}
    ]}
  ]
}
